According to patent US8540999B2, “Allergenic proteins and peptides from Japanese cedar pollen” (Merck Patent GmbH, priority 1991, dated 2013):

Tests used:
allergic patient IgE [1] = test: Competition ELISA, wells coated with Japanese cedar pollen SPE; type: binding, human
Procedure: In the competition assay, ELISA wells were coated with Japanese cedar pollen SPE and then allergic patient IgE binding was measured in the presence of competing purified native Cry j I in solution. The source of allergic IgE in these assays was either the pool of plasma from 15 patients (denoted PHP) or seven individual plasma samples from patients with a Japanese cedar MAST score of 2.5 or greater. The competition assay using the pooled human plasma samples compares the competitive binding capacity of purified native Cry j I to Japanese cedar pollen SPE and an irrelevant allergen source, rye grass SPE. […] This assay was repeated with individual patients as a measure of the range of the IgE response within the allergic population.

allergic patient IgE [2] = test: Direct ELISA, IgE binding to rCry j I and Cry j I peptides (Example 8); design: species or system human; conditions: PHP (15 patients), FIG. 15
Procedure: The recombinant Cry j I protein (rCry j I), expressed in bacteria and then purified (as described in Example 5), has been examined for IgE reactivity. The first method applied to this examination was direct ELISA where wells were coated with the recombinant Cry j I and IgE binding was assayed on individual patients. FIG. 9 is the graphic representation of this direct ELISA.
To analyze IgE reactivity to selected Cry j I peptides a direct ELISA format was used. ELSIA wells were coated with 25 peptides derived from Cry j I and assayed for IgE binding. FIG. 15a and 15b are graphs of these binding results using PHP (15 patients) as the cedar pollen allergic IgE source. This pool of plasma was formulated for enrichment of IgE that could bind to denatured SPE (as determined by direct ELISA) and therefore increase the chance of reactivity toward the peptides.

human basophil = test: Histamine release assay; type: cell-based; conditions: one Japanese cedar pollen allergic patient, FIG. 11
Procedure: To determine whether a peptide which binds IgE results in the release of mediators, a histamine release assay can be performed using standard reagents and protocols obtained for example, from Amac, Inc. (Westbrook, Me.). Briefly, a buffered solution of a peptide to be tested is combined with an equal volume of whole heparinized blood from an allergic subject. After mixing and incubation, the cells are pelleted and the supernatants are processed an analyzed using a radioimmunoassay to determine the amount of histamine released.
A histamine release assay was performed on one Japanese cedar pollen allergic patient using Japanese cedar pollen SPE, purified native Cry j I and rCry j I as the added antigens. This assay is a measure of IgE reactivity through human basophil mediator release. […] Two possible explanations for this release by the rCry j I are: 1) specific reactivity with a very low proportion of the anti-Cry j I IgE capable of recognizing the recombinant form of Cry j I, or 2) non-specific release caused by low abundance of bacterial contaminants observed only at the highest antigen concentration. […] In addition, the data shown are from single data points at each protein concentration.

[3] = tested on: Cry j allergic patient plasma IgE; test: Cry j I peptide screen, direct ELISA for IgE binding (Example 12); design: species or system human; conditions: plasma pools PHP-A and PHP-D, FIGS. 22 and 23
Source text: To analyze IgE reactivity to the selected peptides discussed in example 11 and shown in FIG. 20, a direct ELISA format was used. ELISA wells were coated with the selected peptides derived from Cry j I and then assayed for IgE binding. FIGS. 22 and 23 are graphs of these binding results using two different pools of Cry j allergic patient plasma. Patient plasma pool A (denoted PHP-A) (FIG. 22) was formulated by mixing equal volumes of plasma from 22 patients that were all shown to be positive for direct IgE binding to native purified Cry j I by ELISA. The second pool (PHP-D) (FIG. 23) was formulated by the combination of equal plasma volumes from 8 patients that had IgE binding by direct ELISA to both native and denatured purified Cry j I. This pool was generated to increase the chance of detecting reactivity towards peptides. […] There was no detectable IgE binding reactivity to any of the peptides at any of the plasma concentrations used. To control for the presence of peptide coating the wells, mouse polyclonal antisera was generated to the peptides. […] The results of these assays are shown in FIG. 24, and indicate that peptides were coating the wells.

patients' plasma IgE = test: Direct binding assay of IgE to Cry j I, Cry j II and recombinant Cry j II (Example 18); design: species or system human
Procedure: Costar assay plates were coated with Cry j I or Cry j II at 2 μg/mL or recombinant Cry j II preparation at 10 μg/mL (approximately 20% pure) in a volume of 50 μL overnight at 4° C. The coating antigens were removed and the wells were blocked with 0.5% gelatin, PVP (polyvinyl pyrolidine) 1 mg/mL in PBS, 200 μL/well for 2 hours at room temperature. The anti-Cry j I monoclonal antibody, 4B11, was serially diluted in PBS-Tween 20 starting at a 1:1000 dilution. The human plasma were serially diluted in PBS-Tween at a starting dilution of 1:2. For this set 23 plasma samples from patients symptomatic for Japanese cedar pollen allergy chosen for IgE binding analysis. The first antibody incubation proceeded overnight at 4° C. Following three washes with PBS-Tween the second antibodies were added (biotinylated goat anti-mouse Ig or goat anti-human IgE both at 1:2000) and incubated for two hours at room temperature at 100 μL/well. After washing 3 times, […]. This solution was removed and streptavidin-HRPO diluted to 1:10,000, was added at 100 μL/well. The color was allowed to develop for 2-5 minutes. The reaction was stopped by the addition of 100 μL/well of 1M phosphoric acid. Plates were read on a Microplate IL310 Autoreader (Biotek Instruments, Winooski, Vt.) with a 450 nm filter. The absorbance levels of duplicate wells were averaged. A positive binding result, indicated by a plus sign is determined to be a reading of two-fold or greater above background (no first antibody) at the second dilution of plasma ([…]).

allergic patient IgE [4] = test: Allergic sera titration of purified subfractions of Cry j I (FIG. 3); type: binding, human; conditions: pool of fifteen allergic patient plasma
Source text: In summary, three Cry j I isoforms of different molecular weight were purified from pollen extract. The molecular weights estimated by SDS-PAGE ranged from 40-35 kD under both reducing and non-reducing conditions. The isoelectric point of these isoforms is approximately 9.5-8.6, with an average pI of 9.0. The N-terminal 20 amino acid sequence was the same in these 3 bands and was identical to previously published Cry j I sequence (Taniai et al, supra). The 3 isoforms are all recognized by monoclonal antibody CBF2 as shown in the allergic sera titration of different purified subfractions of Cry j I using a pool of fifteen allergic patient plasma. […] The difference in molecular weight and isoelectric point in these isoforms might in part be due to post-translational modification, e.g. glycosylation, phosphorylation or lipid content. The possibility that these different isoforms might be due to protease degradation cannot be ruled out at present even though it is unlikely due to the fact that four different protease inhibitors were used during extraction and purification. The other possibility could be due to polymorphism in the gene or alternate splicing in the mRNA though only one major form of Cry j I protein has been detected in cDNA cloning studies (see Example 4).

B1: purified native Cry j I: major allergen of Japanese cedar pollen, biochemically purified in the native form (protein)
chain: DNPIDSCWRGDSNWAQNRMKLADCAVGFGSSTMGGKGGDLYTVTNSDDDPVNPAPGTLRYGATRDRPLWIIFSGNMNIKLKMPMYIAGYKTFDGRGAQVYIGNGGPCVFIKRVSNVIIHGLYLYGCSTSVLGNVLINESFGVEPVHPQDGDALTLRTATNIWIDHNSFSNSSDGLVDVTLTSTGVTISNNLFFNHHKVMLLGHDDAYSDDKSMKVTVAFNQFGPNCGQRMPRARYGLVHVANNNYDPWTIYAIGGSSNPTILSEGNSFTAPNESYKKQVTIRIGCKTSSSCSNWVWQSTQDVFYNGAYFVSSGKYEGGNIYTKKEAFNVENGNATPQLTKNAGVLTCSLSKRC
Allergic patient IgE [1]; pooled human plasma (PHP), 15 patients, FIG. 6
  competition for IgE binding to coated Japanese cedar pollen SPE: competes very well
Allergic patient IgE [1]; seven individual patients, FIG. 7
  competition for IgE binding to coated Japanese cedar pollen SPE: could be competed
Allergic patient IgE [2]
  IgE binding, direct ELISA: only specific IgE detected
Human basophil
  histamine release: strong histamine release
[3]
  IgE binding, direct ELISA: direct binding
patients' plasma IgE; patient #1034
  plasma IgE binding response: no detectable binding
patients' plasma IgE; patient plasma samples, FIGS. 31-33
  plasma IgE binding response: variable response
Allergic patient IgE [4]
  IgE binding of purified isoforms: bind allergic patient IgE
